This experiment deals with human CD137 (human) (UniProt Q07011). In words: surface plasmon resonance (SPR); format not described.

pKd: −log10 of the molar value.

Chain of human CD137 (human) (Q07011 24-186 limits assumed): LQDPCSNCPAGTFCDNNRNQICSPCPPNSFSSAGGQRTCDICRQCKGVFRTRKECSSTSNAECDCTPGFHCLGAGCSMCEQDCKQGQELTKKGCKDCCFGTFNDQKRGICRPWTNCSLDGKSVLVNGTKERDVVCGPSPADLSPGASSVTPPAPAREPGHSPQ
Chain of Urelumab (antibody) (VH): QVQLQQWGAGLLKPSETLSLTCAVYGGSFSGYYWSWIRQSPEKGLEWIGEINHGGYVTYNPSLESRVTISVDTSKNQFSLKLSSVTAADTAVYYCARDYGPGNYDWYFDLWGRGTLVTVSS
Chain of Urelumab (antibody) (VL): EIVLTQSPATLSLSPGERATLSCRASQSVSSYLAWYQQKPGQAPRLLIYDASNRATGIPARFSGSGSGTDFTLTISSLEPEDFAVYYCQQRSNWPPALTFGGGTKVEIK

Urelumab (antibody): the pKd (in general, the negative decadic logarithm of the Kd, by convention in mol/L) was 8.02.

The values are drawn from US20230133118A1, “COMPOSITIONS AND METHODS FOR TREATING CANCER” (Adagene AG, priority 2020, published 2023).
